Reference: paper PMC2175121

Biological target: cell-surface GalNAcPTase (chicken (endogenous in E9 chick retina cells))

Full-length neurocan fusion protein (RP) (natural protein)
inhibition of N-cadherin-mediated adhesion of E9 retina cells, RP at 20 μg/ml: 60%
